For one experiment, the system named is Staphylococcus aureus. As to conditions: does not cleave N,6-O-diacetylmuramic acid in cell walls; Masschalck et al. 2002; cited from earlier work.
Experiment [1] has as its system rumen fluid. The experiment can be described thus: in vitro ruminal fermentation, 22 muramidases, 12 h (Example 4). The following applies: for Acetate / Butyrate / Propionate: VFA production after 12 h; for Total VFA: sum of VFA after 12 h; for Carbon in VFA: summed carbon in VFA after 12 h. Details: species or system cow; DMd: unit not given here. As to the method:
(§1) The trial was performed by Alimetrics (Alimetrics Ltd, Koskelontie 19B, FIN-02920 Espoo, Finland) using 120 mL serum bottles as fermentation vessels. The fermentation preparation and procedure is presented in Kettunen et al., (Kettunen H., J. Vuorenmaa, D. Gaffney and J. Apajalahti (2016): Yeast hydrolysate product enhances ruminal fermentation in vitro. J. App. Anim. Nutr., Vol. 4; e1; page 1 of 7). In short, the method is as follows: All bottles were initially filled with 1 g of feed DM composed from corn silage, barley meal, soybean meal, at the amounts of 0.5, 0.4, and 0.1 g DM, respectively. Subsequently, the bottles were flushed with CO2 passed through a hot copper catalyst for O2 scavenging and sealed with thick butyl rubber stopper. Anaerobic, reduced and temperature adjusted (+38° C.) artificial saliva buffer solution (Modified from Agriculture Handbook No. 379, (USDA, Washington, D.C., 1975), volume of 37.65 ml), freshly strained rumen fluid (5% inoculum; volume of 2 ml), and test compounds (volume of 0.35 ml) was introduced into the fermentation vessels under the oxygen-free CO2 flow. Following rumen fluid was collected from a ruminal cannulated cow. Rumen fluid was pumped directly from the rumen into a preheated thermos and immediately closed, and transported to Alimetrics laboratory. The rumen fluid was used for inoculation within 2 hours of harvest. To ensure that both liquid and particle associated ruminal microbes were present in the inoculum both fractions were obtained. Liquid and solid fractions were strained through a metal mesh (grid size 3×3 mm) under anaerobic conditions prior to buffer dilution.
(§2) Following inoculation with rumen fluid, buffer and test solution, the vessels were sealed with the butyl rubber septum's. All fermentation vessels were inoculated in random order to prevent the possible block effects. Inoculation time for each fermentation vessel was registered and was taken into account op on each sampling to ensure that duration of the fermentation was the same for each sample. The fermentation was continued for 12 h in a gyratory shaker at +38° C. Fermentation gas produced was measured and relived by collection of the fermentation gas in syringes at time 3, 6, 9, and 12 h. Feed residues were measured after 12 h fermentation.
The trial design was a dosage response, complete randomized design with 27 treatments using 145 fermentation vessels according to table 5. […] Negative control was supplemented with the same buffer solution that was used for diluting the enzymes to reach the same liquid volume as the supplemented fermentation vessels. The ionophore Monensin (Monensin sodium salt, 90-95% TLC (Sigma Aldrich; Product code: M5273-1G)) was chosen as a positive control because it is a ruminants feed additive that affects volatile fatty acids (VFA) production.
Liquid Samples Obtained at 12 h were Analyzed for the Concentration of VFA (Acetate, Propionate, butyrate, and valerate) by GC-FID using a glass column packed with 80/120 carbopack B-DA/4% Carbowax stationary and helium as a carrier gas (Kettunen H., J. Vuorenmaa, T. Rinttilä, H. Grönberg, E. Valkonen and J. Apajalahti (2015): Natural resin acid-enriched composition as a modulator of intestinal microbiota and performance enhancer in broiler chicken. J. App. Anim. Nutr., Vol. 3; e2; page 1 of 9).
(§3) Digestibility of dry matter was quantified by determination of dry matter in the original feed matrix and in all fermentation vessels after 12 h of fermentation. Feed residues from the fermentation vessels were obtained by filtration tared sintered glass filters, washed with water and dried at 105° C. for 12 hours. Finally, the glass filters are weighed for the residual feed dry matter.
(§4) Dry matter digestibility (DMd) was calculated at the ratio between feed residues after end fermentation and the dry matter fed. […]

In experiment [2] the test system is rumen fluid. Kind of experiment: in vitro ruminal fermentation, 13 muramidases, 12 h (Example 3). Details: species or system cow. As to conditions: PC at dosage 0.01 mg/40 mL. As to the method: as §1, with “collection” for “was collected”
as §2, with “solution” for “solution,”
The trial design was a dosage response, complete randomized design with 28 treatments using 150 fermentation vessels according to table 3. The 13 muramidase solutions were diluted to the concentration needed in enzyme buffer (BSA, Tween 20, acetate-buffer, Calcium, NaOH, adjusted to pH 6). Negative control was supplemented with the same buffer solution that was used for diluting the enzymes to reach the same liquid volume as the supplemented fermentation vessels. The ionophore Monensin (Monensin sodium salt, 90-95% TLC (Sigma Aldrich; Product code: M5273-1G)) was chosen as a positive control because it is a ruminants feed additive that affects volatile fatty acids (VFA) production.
Liquid samples obtained at 12 h were analyzed for the concentration of VFA (acetate, propionate, butyrate, and valerate) by GC-FID using a glass column packed with 80/120 carbopack B-DA/4% Carbowax stationary and helium as a carrier gas (Kettunen H., J. Vuorenmaa, T. Rinttilä, H. Grönberg, E. Valkonen and J. Apajalahti (2015): Natural resin acid-enriched composition as a modulator of intestinal microbiota and performance enhancer in broiler chicken. J. App. Anim. Nutr., Vol. 3; e2; page 1 of 9).
as §3, §4

The mark [3] stands for this setting: PC (Monensin) 0.01 or 0.10 mg/40 ml, not stated which.
Where [4] appears, read: dry matter digestibility after 12 h of ruminal fermentation in vitro, muramidase 0.20 mg/40 ml.

Where a name gives a salt, the structure may show the parent alone.

With “Muramidase extracted from hen egg white: GH22 muramidase from hen egg white, primary product available on the commercial market”, the “lysis of Staphylococcus aureus” value with Staphylococcus aureus is reported as “unable to lyse”.
As for `CC[C@@]1([C@@H]2O[C@@H]([C@H]3O[C@@](O)(CO)[C@H](C)C[C@@H]3C)C[C@@H]2C)CC[C@H]([C@]2(C)CC[C@]3(C[C@H](O)[C@@H](C)[C@@H]([C@@H](C)[C@@H](OC)[C@H](C)C(=O)O)O3)O2)O1` [PC, Monensin sodium salt, reference compound], the results for the Acetate in the experiment on rumen fluid [1] (setting [3]) and in the experiment with rumen fluid [2] (VFA production after 12 h) were 44.2 mmol/L and 47.5 mmol/L, respectively. The results for the Butyrate in the experiment on rumen fluid [1] (setting [3]) and in the experiment on rumen fluid [2] (VFA production after 12 h) were 3.7 mmol/L and 3.86 mmol/L, respectively. Further, the Propionate in the experiment on rumen fluid [1] (setting [3]) amounted to 42.8 mmol/L; with rumen fluid [2] (VFA production after 12 h), 46.4 mmol/L. In addition, the DMd is listed as 0.51 in the experiment with rumen fluid [1] (dry matter digestibility after 12 h, PC (Monensin) 0.01 or 0.10 mg/40 ml, not stated which) and 0.55 in the experiment on rumen fluid [2] (dry matter digestibility after 12 h). The “Total VFA” value in the experiment with rumen fluid [1] (setting [3]) is 91 mmol/L; in the experiment with rumen fluid [2] (sum of VFA after 12 h), 98 mmol/L. The “Carbon in VFA” value in the experiment on rumen fluid [1] (setting [3]) stood at 234 mmol/L; in the experiment on rumen fluid [2] (summed carbon in VFA after 12 h), 251 mmol/L.

B1: V: mature muramidase polypeptide from Acremonium exiguum, novel MUR polypeptide; V in Example 4 (protein, listed as Acremonium exiguum)
chain: RSIPIVARAYPGLDDVQSRNAEAALGEIRAEGINPARQACLAVISTALQESELYIYANPAVPESMNYPHDREGGDQDSVGMFQQRPEWYPDIAADMSASGSTRQFLAAMLQVPGWQTMEVSALDQEVQKAEAGNLYGQRIPLATQVCDAAGF
With B1, in the experiment with rumen fluid [1] (muramidase 0.20 mg/40 ml), the Acetate came out at 49.2 mmol/L, the Butyrate came out at 7.1 mmol/L, the Propionate is given as 40.6 mmol/L and the “Total VFA” value came out at 97 mmol/L. The “Carbon in VFA” value with rumen fluid [1] (muramidase 0.20 mg/40 ml) was 252 mmol/L. Besides, in the experiment with rumen fluid [1] (setting [4]), the DMd stood at 0.59.

B2: Z: mature muramidase polypeptide from Penicillium wellingtonense, novel MUR polypeptide; Z in Example 4 (protein)
chain: YPITGDVVNCRSGPGTTYDVVKSYKLNADVSITCQAPGTDVKGDSVWDKTADGCYVADYYVKTGSSSYVTTKCGGDDDGGDNDGGSSGNLPGLTSTQSKHAKDIIAEAKSEDLGRQGCLAGIATAIVESNILIYANSGVPESLKYPHDAVGSDHDSVGIFQQRAMFYKDIAADMDAGKSAGQFFGKMKAVSGWKSMDVGTLCQKVQGSAYPSRYAEQVSKAEKICKAGGL
modifications: Penicillium wellingtonense
Regarding B2, in the experiment with rumen fluid [1] (muramidase 0.20 mg/40 ml), the Acetate is recorded as 48.7 mmol/L, the Butyrate came to 6.9 mmol/L, the Propionate turned out to be 39.6 mmol/L and the “Total VFA” value was determined as 96 mmol/L. In addition, the “Carbon in VFA” value with rumen fluid [1] (muramidase 0.20 mg/40 ml) is reported as 247 mmol/L. In the experiment on rumen fluid [1] (setting [4]), this molecule gave a DMd of 0.56.

B3: W: mature muramidase polypeptide from Chaetomium sp., novel MUR polypeptide; W in Example 4 (protein)
chain: YPITGDPLNCRSGPGTSYAIKKSYTKGADIKISCQTEGTSVNGNSIWDKTQDGCYVADFYVKTGVDGYVTKKCSGGGGDTGGGSGGIPGPVKDDYPYKSSCGGVDPWNYYKCQCTSFVAWRINKRLGIKFHNQYKGTNWGNANTWDNAAKKTGVKVNSTPKPGAIAQSNAGNYGHVAWVTAVNGNKVTIEEYNWGKREGYGKRTVDKSAFNYIHVKA
modifications: Chaetomium sp
For the molecule B3, in the experiment with rumen fluid [1] (muramidase 0.20 mg/40 ml), the Acetate worked out at 48.9 mmol/L, the Butyrate was 6.7 mmol/L, the Propionate amounted to 40.9 mmol/L and the “Total VFA” value was 97 mmol/L. Also, the “Carbon in VFA” value in the experiment on rumen fluid [1] (muramidase 0.20 mg/40 ml) is 250 mmol/L. In the experiment with rumen fluid [1] (setting [4]), the DMd stood at 0.59.

B4: Y: mature muramidase polypeptide from Ovatospora brasiliensis, novel MUR polypeptide; Y in Example 4 (protein, listed as Ovatospora brasiliensis)
chain: YPVKADSLNCRSGPGTSYKVVKTYKKGADIKISCQTEGPSVNGDNLWIKTQDGCYVADYYVKTGTNGYVAKKCSSGGSTGGGSGGGKGNLPGLNAKQSSHARAIVAQAKKDGVGLHGCEAGIATALVESGIKVYANKKVPASLKYPHDAVGSDHDSIGIFQQRAVYYPNIAADMDPARSAHQFFAKMKGVSGWKTMAVGKLCQKVQVSAYPDRYAKRVSEATKICKAAGI
Regarding B4, in the experiment with rumen fluid [1] (muramidase 0.20 mg/40 ml), the Acetate came to 50.8 mmol/L, the Butyrate was 6.1 mmol/L, the Propionate worked out at 43.1 mmol/L and the “Total VFA” value came out at 100 mmol/L. Also, the “Carbon in VFA” value with rumen fluid [1] (muramidase 0.20 mg/40 ml) is reported as 258 mmol/L. In the experiment with rumen fluid [1] (setting [4]), this molecule yielded a DMd of 0.57.

Source of the values: patent US20210037856A1, “Ruminant Feed Composition Comprising A Muramidase” (Novozymes A/S, priority 2018, published 2021).
